Changes are numbered by the printed parent chain.
B1: X115-B07 (antibody, V domains shown)
VL: EIVLTQSPGTLSLSPGERATLSCRTSQFVNSNYLAWYQQKPGQAPRLLIYGASSRATGIPDRFSGSGSGTDFTLTISRLEPEDFAVYYCQQSSRTPWTFGQGTKVEIK
VH: EVQLLESGGGLVQPGGSLRLSCAASGFTFSHYLMTWVRQAPGKGLEWVSYISPSGGHTIYADSVKGRFTISRDNSKNTLYLQMNSLRAEDTAVYYCAMVGQGIRGRSRTSYFAQWGQGTLVTVSS
B2: X115-D05 (antibody, V domains shown)
VL: B1 VL
VH: EVQLLESGGGLVQPGGSLRLSCAASGFTFSDYMMAWVRQAPGKGLEWVSSIVPSGGHTHYADSVKGRFTISRDNSKNTLYLQMNSLRAEDTAVYYCARVARGIAARSRTSYFDYWGQGTLVTVSS
B3: X115-E09 (antibody, V domains shown)
VL: B1 VL
VH: B1 VH with M98R, G100A, R104A, G105A, Y111S, F112V, A113D
B4: X115-H06 (antibody, V domains shown)
VL: B1 VL
VH: B1 VH with M98R, G100A, R104S, G105A, A113D, Q114Y
B5: X115-A03 (antibody, V domains shown)
VL: DIQMTQSPSTLSASVGDRVTITCRASQSISSWLAWYQQKPGKAPKLLIYKASTLESGVPSRFSGSGSGTEFTLTISSLQPDDFATYYCQQYNTYWTFGQGTKVEIK
VH: EVQLLESGGGLVQPGGSLRLSCAASGFTFSHYIMMWVRQAPGKGLEWVSGIYSSGGITVYADSVKGRFTISRDNSKNTLYLQMNSLRAEDTAVYYCAWRRIGVPRRDSFDMWGQGTMVTVSS
B6: X115-D01 (antibody, V domains shown)
VL: B5 VL
VH: EVQLLESGGGLVQPGGSLRLSCAASGFTFSIYSMHWVRQAPGKGLEWVSSIYPSRGMTWYADSVKGRFTISRDNSKNTLYLQMNSLRAEDTAVYYCAYRRTGIPRRDAFDIWGQGTMVTVSS
B7: X115-F02 (Fab, V domains shown)
VL: B5 VL
VH: B5 VH with W98Y, S108E, M111I
B8: X115-G04 (antibody, V domains shown)
VL: B5 VL
VH: B5 VH with W98Y, I101T, S108E, M111I

Target: human plasma kallikrein (active form) (human), P03952
Sequence (P03952 20-390, chain 1 of 2): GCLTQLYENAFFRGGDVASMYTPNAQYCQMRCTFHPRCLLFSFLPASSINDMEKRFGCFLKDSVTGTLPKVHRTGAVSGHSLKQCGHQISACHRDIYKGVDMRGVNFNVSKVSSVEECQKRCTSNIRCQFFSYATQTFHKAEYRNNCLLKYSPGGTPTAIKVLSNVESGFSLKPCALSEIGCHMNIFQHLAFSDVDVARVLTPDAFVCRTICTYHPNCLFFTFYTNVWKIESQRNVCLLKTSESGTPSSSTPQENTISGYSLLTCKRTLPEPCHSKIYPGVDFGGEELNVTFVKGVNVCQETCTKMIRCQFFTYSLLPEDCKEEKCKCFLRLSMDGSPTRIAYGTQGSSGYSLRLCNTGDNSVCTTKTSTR
Sequence (P03952 391-638, chain 2 of 2): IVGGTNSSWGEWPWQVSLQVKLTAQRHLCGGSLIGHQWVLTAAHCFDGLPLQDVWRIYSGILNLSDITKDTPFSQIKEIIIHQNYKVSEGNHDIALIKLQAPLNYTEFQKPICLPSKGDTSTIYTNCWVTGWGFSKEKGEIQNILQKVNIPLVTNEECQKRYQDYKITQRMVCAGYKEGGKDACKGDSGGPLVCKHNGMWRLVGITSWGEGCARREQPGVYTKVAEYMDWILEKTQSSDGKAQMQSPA
Experiment: Ki,app on full length pKal, enzyme inhibition
Details: remark: other sources report otherwise

Binder	Ki [pM]
B1	330
B2	250
B3	340
B4	350
B5	160
B6	180
B7	89
B8	600

— patent US8816055
